Data published in US20240327544A1 (BIONTECH, published 2024).
“And” between values parts separate entries of the source, which are not always exact repeats. Equal entries are not always repeated.

Experiments:
[1] = target: T1, C1q (complement protein C1q from human serum) (human, UniProt P02745 23-245; P02746 28-253; P02747 29-245); assay: flow cytometry, activated human CD8+ T cells, FITC anti-C1q
T1 construct: Human serum (20%) was the source of C1q

[2] = target: human PD-1, full-length, expressed on cells (human, UniProt Q15116 25-288); assay: cell-based or functional assay
Chain of human PD-1, full-length, expressed on cells (Q15116 25-288 limits assumed): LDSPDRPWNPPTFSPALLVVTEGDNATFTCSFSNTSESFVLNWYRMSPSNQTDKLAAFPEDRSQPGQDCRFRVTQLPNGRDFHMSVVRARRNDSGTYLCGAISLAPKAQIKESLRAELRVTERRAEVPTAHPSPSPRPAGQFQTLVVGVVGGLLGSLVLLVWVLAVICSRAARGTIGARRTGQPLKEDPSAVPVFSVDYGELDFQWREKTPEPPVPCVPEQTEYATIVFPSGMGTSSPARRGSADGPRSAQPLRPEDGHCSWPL

T1 sequence (P02745 23-245 limits assumed, chain 1 of 3): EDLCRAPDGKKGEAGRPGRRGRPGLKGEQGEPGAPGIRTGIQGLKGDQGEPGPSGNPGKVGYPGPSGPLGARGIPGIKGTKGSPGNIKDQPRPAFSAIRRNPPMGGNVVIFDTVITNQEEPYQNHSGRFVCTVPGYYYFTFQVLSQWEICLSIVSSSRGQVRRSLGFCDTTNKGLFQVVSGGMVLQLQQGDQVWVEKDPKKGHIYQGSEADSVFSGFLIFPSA
T1 sequence (P02746 28-253 limits assumed, chain 2 of 3): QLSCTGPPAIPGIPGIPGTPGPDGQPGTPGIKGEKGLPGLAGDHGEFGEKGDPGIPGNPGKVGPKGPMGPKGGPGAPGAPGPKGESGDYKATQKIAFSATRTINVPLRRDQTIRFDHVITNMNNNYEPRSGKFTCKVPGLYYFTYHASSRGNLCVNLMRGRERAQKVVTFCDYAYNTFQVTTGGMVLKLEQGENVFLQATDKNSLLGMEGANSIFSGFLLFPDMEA
T1 sequence (P02747 29-245 limits assumed, chain 3 of 3): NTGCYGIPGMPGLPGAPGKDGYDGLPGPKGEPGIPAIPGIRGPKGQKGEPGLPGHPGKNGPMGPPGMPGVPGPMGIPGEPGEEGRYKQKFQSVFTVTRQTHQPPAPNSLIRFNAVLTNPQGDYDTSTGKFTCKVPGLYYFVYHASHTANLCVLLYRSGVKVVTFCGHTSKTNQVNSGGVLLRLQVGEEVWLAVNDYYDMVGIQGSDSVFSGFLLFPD

B1: IgG1-PD1 (antibody)
heavy: QVQLVESGGGLVQPGTSLRLSCSVSGFSLYSYNMGWVRQAPGKGLEYIGIISGGTIGHYASWAKGRFTISRDTSKTTLYLQMNSLTTEDTATYFCARAFYDDYDYNVWGPGTLVTVSSASTKGPSVFPLAPSSKSTSGGTAALGCLVKDYFPEPVTVSWNSGALTSGVHTFPAVLQSSGLYSLSSVVTVPSSSLGTQTYICNVNHKPSNTKVDKRVEPKSCDKTHTCPPCPAPEFERGPSVFLFPPKPKDTLMISRTPEVTCVVVDVSHEDPEVKFNWYVDGVEVHNAKTKPREEQYNSTYRVVSVLTVLHQDWLNGKEYKCKVSNKALPAPIEKTISKAKGQPREPQVYTLPPSREEMTKNQVSLTCLVKGFYPSDIAVEWESNGQPENNYKTTPPVLDSDGSFFLYSKLTVDKSRWQQGNVFSCSVMHEALHNHYTQKSLSLSPG
light: AIQLTQSPSSLSASVGGTVTITCQSSQSVYGNNQLSWYQQKPGQPPKLLIYQASKLETGVPSRFRGSGSGTQFTLTISSLQSEDFATYYCAGGYSSSSDTTFGGGTEVVVKRTVAAPSVFIFPPSDEQLKSGTASVVCLLNNFYPREAKVQWKVDNALQSGNSQESVTEQDSKDSTYSLSSTLTLSKADYEKHKVYACEVTHQGLSSPVTKSFNRGEC
notes: Humanized rabbit anti-PD-1 antibody, Fc-inert IgG1 kappa; also called MAB-19-0618 variable regions in a human IgG1m(f) L234F/L235E/G236R (FER) backbone
Q: Does B1 bind [1]?
A: Result: no binding (tested: antibody up to 30 µg/mL, 20% human serum)

Q: And the “EC50 of PD-1/PD-L1 checkpoint blockade (luminescence, PD-1/PD-L1 blockade reporter assay)” value [2]?
A: Its value is 0.165 µg/mL and 1.12 nM.
